Patent US20200239573A1 (CRESCENDO BIOLOGICS, published 2020)

What was measured:
[1] = biological target: human PD-1 on primary human CD4+ T cells (human, UniProt Q15116 21-288); experiment: flow cytometry, PHA-stimulated human CD4+ T cells, donor 4
Procedure: Binding of monovalent single domain antibodies and multivalent binding agents to T cells was measured using flow cytometry. […] T-cells were stimulated with 2.5 μg/ml PHA for 2-4 days in RPMI media supplemented with 10% FBS, 2 mM Glutamine, 1× Pen/Strep. Cells were transferred into 96 well plates (75000 per well), blocked for 10 mins with PBS/1% BSA, then incubated with serially diluted VH in staining buffer (PBS/1% BSA) for 1 hour at 4° C. Cells were washed with staining buffer by centrifugation then incubated with 10 μg/ml biotinylated Anti His antibody for 40 mins at 4° C. Cells were washed again then stained with Streptavidin Alexa Fluor-488 (10 μg/ml) and 1:5000 diluted Live Dead near IR stain (Molecular Probes cat no. L10119) for 30 mins at 4° C. After further washing cells were fixed and fluorescence measured by flow cytometry.

[2] = biological target: T1, recombinant human PD-1 Fc chimera (human, UniProt Q15116 25-167); experiment: SPR Biacore T200, PD-1-huFc amine-coupled, single cycle kinetics
T1 construct: Bought protein; also called human PD-1-huFc; huPD-1-Fc; not shown: human Fc
T1 sequence (Q15116 25-167 limits assumed, change not shown): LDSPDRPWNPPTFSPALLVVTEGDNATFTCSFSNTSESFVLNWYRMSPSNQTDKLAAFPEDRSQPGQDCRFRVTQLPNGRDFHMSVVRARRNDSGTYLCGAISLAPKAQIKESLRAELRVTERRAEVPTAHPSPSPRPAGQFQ

[3] = biological target: T2, human PD-1 expressed on cells (CHO human PD-1 cells) (human, UniProt Q15116 21-288); experiment: FMAT epitope competition on CHO human PD-1 cells; competitor 1 nM 1.1-Strep
T2 construct: also called CHO TREX human PD-1 cell line; CHO PD-1
T2 sequence (Q15116 21-288): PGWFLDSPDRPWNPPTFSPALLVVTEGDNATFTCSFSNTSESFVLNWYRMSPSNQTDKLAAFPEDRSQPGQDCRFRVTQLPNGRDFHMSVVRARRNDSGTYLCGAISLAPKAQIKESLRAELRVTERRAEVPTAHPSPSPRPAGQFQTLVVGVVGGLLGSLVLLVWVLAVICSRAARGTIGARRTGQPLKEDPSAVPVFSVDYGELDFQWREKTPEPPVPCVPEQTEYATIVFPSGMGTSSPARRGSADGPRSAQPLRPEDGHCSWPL

[4] = biological target: T2, human PD-1 expressed on cells (CHO …); experiment: FMAT direct binding to CHO human PD-1 cells; column headed CHO PD-1 binding IC50 (M)
From the text: Plates were read in the FL2 (502 nm-537 nm) and FL5 (677-800 nm) channels on the TTP Mirrorball plate reader following excitation at 488 nm and 640 nm.

[5] = biological target: T2, human PD-1 expressed on cells (CHO …); experiment: FMAT 1.57 epitope competition on CHO human PD-1 cells; competitor 1.57-Strep; sample kept 1 day in human serum
[6] = biological target: T2, human PD-1 expressed on cells (CHO …); experiment: FMAT 1.57 epitope competition on CHO human PD-1 cells; competitor 1.57-Strep; sample kept 4 days in human serum
[7] = biological target: T2, human PD-1 expressed on cells (CHO …); experiment: FMAT 1.57 epitope competition on CHO human PD-1 cells; competitor 1.57-Strep; sample kept 7 days in human serum
[8] = biological target: T2, human PD-1 expressed on cells (CHO …); experiment: FMAT 1.57 epitope competition on CHO human PD-1 cells; competitor 1.57-Strep; sample kept 0 days in human serum; Day 0, Human column

Sequence of human PD-1 on primary human CD4+ T cells (Q15116 21-288): as above

EC50 [1]: 0.9 nM | Kd [2]: 0.059 nM | koff [2]: 3.67e-05 s⁻¹ | kon [2]: 620000 M⁻¹ s⁻¹ | IC50 [3]: 0.79 nM | EC50 [4]: 0.1 nM | IC50 [5]: 4.9 nM | IC50 [6]: 6.1 nM | IC50 [7]: 5.4 nM | IC50 [8]: 5.7 nM
B1: Humabody® 1.92 (VHH)
VHH: EVQLVESGGGLVKPGGSLRLSCAASGFTFSDESMTWMRQAPGKGLEWVSYISSGGGVKFYADSVKGRFTISRDNAKNSLYLQMNSLRAEDTAVYYCAREAPLRLGESPHDAFDISGQGTMVTVSS
notes: human VH single domain antibody
